# Assay results: article doi:10.1101/2020.07.21.215244 (bioRxiv, 2020)
# T1: AscA (YecA), unfused full-length (E. coli, UniProt P0AD05 1-221)
# T1 sequence (looked up): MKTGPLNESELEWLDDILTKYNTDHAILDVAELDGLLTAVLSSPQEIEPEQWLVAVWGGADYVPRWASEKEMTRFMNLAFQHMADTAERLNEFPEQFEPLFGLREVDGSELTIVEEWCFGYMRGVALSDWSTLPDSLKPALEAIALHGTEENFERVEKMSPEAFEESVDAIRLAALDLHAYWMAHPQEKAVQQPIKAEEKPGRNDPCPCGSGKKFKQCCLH
# Key:
# [1] = target: vacant (non-translating) 70S ribosomes; experiment: co-sedimentation
# [2] = target: T1, AscA (YecA), unfused full-length; experiment: MST
Binder,stoichiometry N [1],Kd [2] [nM]
"AscA (YecA), unfused full-length (natural protein) MKTGPLNESELEWLDDILTKYNTDHAILDVAELDGLLTAVLSSPQEIEPEQWLVAVWGGADYVPRWASEKEMTRFMNLAFQHMADTAERLNEFPEQFEPLFGLREVDGSELTIVEEWCFGYMRGVALSDWSTLPDSLKPALEAIALHGTEENFERVEKMSPEAFEESVDAIRLAALDLHAYWMAHPQEKAVQQPIKAEEKPGRNDPCPCGSGKKFKQCCLH",1,
"SecB, fluorescently labelled (NT-647) (natural protein, E. coli, UniProt P0AG86 1-155, looked up, randomly labelled with NT-647 (NT-647-NHS labelling kit)) MSEQNNTEMTFQIQRIYTKDISFEAPNAPHVFQKDWQPEVKLDLDTASSQLADDVYEVVLRVTVTASLGEETAFLCEVQQGGIFSIAGIEGTQMAHCLGAYCPNILFPYARECITSMVSRGTFPQLNLAPVNFDALFMNYLQQQAGEGTEEHQDA",,~150
